Laboratory results taken from patent US8383350.

Columns and labels:
[1] = target: humanized 12G8 anti-IL-10 antibody; experiment: blocking ELISA: purified antibody titrated against biotinylated humanized 12G8, binding to coated human IL-10 read
[2] = target: humanized 12G8 anti-IL-10 antibody; experiment: sandwich ELISA: capture 13G4 2.0 ug/mL, humanized 12G8 100 ng/mL, detection biotinylated 11F12 2.0 ug/mL
[3] = target: humanized 12G8 anti-IL-10 antibody; experiment: sandwich ELISA: capture 13G4 1.0 ug/mL, humanized 12G8 100 ng/mL, detection biotinylated 11F12 1.0 ug/mL
[4] = target: humanized 12G8 anti-IL-10 antibody; experiment: sandwich ELISA: capture 13G4 2.0 ug/mL, humanized 12G8 100 ng/mL, detection biotinylated 11F12 0.5 ug/mL
[5] = target: humanized 12G8 anti-IL-10 antibody; experiment: sandwich ELISA: capture 13G4 1.0 ug/mL, humanized 12G8 100 ng/mL, detection biotinylated 11F12 2.0 ug/mL
[6] = target: humanized 12G8 anti-IL-10 antibody; experiment: sandwich ELISA: capture 13G4 0.5 ug/mL, humanized 12G8 100 ng/mL, detection biotinylated 11F12 1.0 ug/mL
[7] = target: humanized 12G8 anti-IL-10 antibody; experiment: sandwich ELISA: capture 13G4 0.5 ug/mL, humanized 12G8 100 ng/mL, detection biotinylated 11F12 0.5 ug/mL
[8] = target: humanized 12G8 anti-IL-10 antibody; experiment: sandwich ELISA: capture 13G4 0.5 ug/mL, humanized 12G8 100 ng/mL, detection biotinylated 11F12 2.0 ug/mL
[9] = target: humanized 12G8 anti-IL-10 antibody; experiment: sandwich ELISA: capture 13G4 1.0 ug/mL, humanized 12G8 100 ng/mL, detection biotinylated 11F12 0.5 ug/mL
[10] = target: humanized 12G8 anti-IL-10 antibody; experiment: sandwich ELISA: capture 13G4 2.0 ug/mL, humanized 12G8 100 ng/mL, detection biotinylated 11F12 1.0 ug/mL

B1: JL11.11F12.C4 (antibody, V domains shown)
VH: EVQVQQSGPELVKPGASMKISCKASGYSFTGYTMNWVKQSHGKTLEWIGLINPYNGGTTYNQKFKGKATLTVDKSSSTAYMELLSLTSEDSAVYYCARRGSGYAMDYWGQGTSVTVS
VL: QIVLTQSPAIMSASLGERVAMTCTASSSVSSHYLHWYQQKPGSSPKLWIYSTSNLASGVPARFSGSGSGTSYSLTISSMEAEDAATYYCHQYHRSPWTFGGGTKLEIKR
- IC50 [1]: 2 nM
- Signal:Noise Ratio [2]: 20
- Signal:Noise Ratio [3]: 40
- Signal:Noise Ratio [4]: 22
- Signal:Noise Ratio [5]: 25
- Signal:Noise Ratio [6]: 8
- Signal:Noise Ratio [7]: 10
- Signal:Noise Ratio [8]: 8
- Signal:Noise Ratio [9]: 32
- Signal:Noise Ratio [10]: 7.5

B2: JL11.13G4.B11 (antibody, V domains shown)
VH: EVKLVESGGGLVKPGGSLKLSCAASGFAFSSYDMSWVRQTPEKRLEWVASISSDGSYTYYPDTVKGRFTISRDNARNTLNLQMSSLRSEDTALYFCARQDGYYLDYWGQGTTLTVSS
VL: EIVLTQSPALMAASPGEKVTITCSVSSSISSSKLYWYQQKSETSPKPWIYGTSNLASGVPVRFSGSGSGTSYSLTISSMEAEDAATYYCQQWSSYPLTFGAGTKLELKR
- IC50 [1]: 1 nM
